Data published in patent US6861508B2, “Transcriptional intermediary factor-2” (Institut National de la Sante et de la Recherche Medicale, priority 1996, dated 2005).
Blank lines part the entries; values can stand above or below the molecule they belong to.

Experiments:
[1] = tested on: CBP (residues 1872 to 2165); test: GST-CBP pull-down of TIF2 polypeptides; assay type: binding
Method: (d) Mapping of the CBP-interacting domain of TIF2. GST puld own experiments were performed with ^35S-labeled in-vitro-translated TIF2 polypeptides and bacterially produced GST and GST-CBP (expressing CBP residues 1872 to 2165).
(c) Interaction of TIF2 AF-1 mutants with CBP in vitro. GST pull-down experiments were performed with ^35S-labeled in-vitro-translated GAL-TIF2 fusion proteins and bacterially produced GST and GST-CBP.
(c) Interaction of TIF2.13 wildtype and TIF2.13 mutants with CBP in vitro. GST pull-down experiments were performed with ^35S-labeled in-vitro-translated VP16-TIF2.13 polypeptides and bacterially produced GST and GST-CBP.
(§1) Furthermore, it was reported that SRC-1, which belongs to the same gene family as TIF2, interacts with CBP and p300 (Kamei, Y. et al., Cell 85:403-414 (1996); Yao, T. P. et al., Proc. Natl. Acad. Sci. USA 93:10626-10631 (1996); Hanstein, B., et al., Proc. Natl. Acad Sci USA 93:11540-11545 (1996)). Using GST-fusion protein-based interaction and animal cell-based two hybrid assays, we therefore analyzed whether TIF2 could also interact with CBP. […] A GST-CBP fusion protein was expressed in E. coli and used for puU-down assays with in vitro translated TIF2 polypeptides (FIG. 7d).

RXRα AF-2 = test: yeast PL3 (ERE)3-URA3 reporter, OMP decase activity, RXRα; assay type: cell-based, mouse; conditions: with ligand
Excerpt: (§2) FIG. 11. The TIF2.1 coactivator fragment efficiently stimulates the ligand-dependent AF-2 of ER, RAR and RXR in yeast. No stimulatory effect of TIF2.1 on the isolated AF-1 of ER (HE15) is observable. Plasmids expressing different regions of hERα (white), hRARα (grey) and mRXRα (black) fused to the ER DBD (hERα(C)) were introduced into the yeast reporter strain PL3 (α) together with TIF2.1 as indicated. […] OMP decase activities determined on each cell-free extract are expressed in nmoyrnin/mg protein; the mean and standard deviation of at least four experiments are shown.
(§3) We therefore investigated whether TIF2 could enhance transcriptional activation by various NR constructs expressed in S. cerevisiae. Both, NRs and TIF2.1 were expressed from multicopy plasmids in the yeast strain PL3 (a), which contains a URA3 reporter gene under the control of three estrogen response elements ((ERE)3-URA3; Pierrat, B. et al., Gene 119:237-245 (1992)).
(§4) In yeast, the hERa constructs were expressed from the following YEp90-based plasmids: HEGO (hERα, YEp90-HEGO, amino acids 1-595), HE15 (YEp90-HE15, amino acids 1-282), and HEG19 (YEp90-HEG19, amino acids 179-595) (all Pierrat, B. et al., Gene 119:237-245 (1992)), HE179-338 (YEp90-HE179-338; Pierrat, B. et al., Gene 143:193-200 (1994)). […]

GAL-CBP = test: two hybrid analysis of CBP-TIF2 interaction in HeLa cells; assay type: cell-based
Method: (e) Two hybrid analysis of the CBP-TIF2 interaction in mammalian cells in vivo. HeLa cells were transfected with 0.2 μg of the GAL4 or GALA-CBP (expressing CBP residues 1872 to 2165) expression vectors together with 0.2 μg of the VP16 or VPI6-TF2 expression vectors in the presence of 2 μg of (17m)5-TATA-CAT reporter plasmid. Fold induction relative to the GAL-CBP activity is indicated. The mean of three experiments is shown; in each case, values varied by less than ±20%.
HeLa cells were transfected with 0.2 μg of GAL4 or GAL-CBP expression vectors together with 0.2 μg of VP16 or VP16-TIF2.13 expression vectors in the presence of 1 μg of (17m)5-TATA-CAT reporter plasmid. Data are represented as fold induction of the activity seen with GAL-CBP alone. The mean and standard, deviation obtained from ten experiments are shown. The expression levels were confirmed by Western blotting with antibodies directed against GAL4 DBD and VP16 AAD (data not shown).
as §1

ER (HEGO) = test: yeast PL3 (ERE)3-URA3 reporter, OMP decase activity, ER; assay type: cell-based, human; conditions: with estradiol
Excerpt: as §2, §3, §4

histone = histone acetylase activity of purified TIF2 fragments; assay type: biochemical; conditions: bacterially-expressed purified fragment
Excerpt: TIF2 can apparently fulfill at least two mediator functions, (i) as a “bridging factor” between the AF-2 function of nuclear receptors and CBP via its AD1 activation domain and (ii) as a transcriptional mediator through as yet unknown CBP binding-independent route(s) via its AD2 function.

RARα LBD = test: yeast PL3 (ERE)3-URA3 reporter, OMP decase activity, RARα; assay type: cell-based, human; conditions: absence of ligand
Excerpt: as §2, §3, §4

GAL4 reporter = test: GAL4 DBD-TIF2 fusion CAT reporter transactivation assay; assay type: cell-based; conditions: Cos-1 and/or HeLa cells
Outline: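 Transiently transfected HeLa and Cos-1 cells received plasmids (3 μg; 1-10 μg in titration) expressing TIF2 regions or mutants fused to GAL4 DBD(1-147), plus 1 μg (17m)5-G-CAT reporter. CAT activity measured by TLC phosphoimaging or CAT ELISA, normalized to cotransfected β-galactosidase, expressed as fold over GAL4 DBD alone; mean of ≥3 experiments.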

[2] = tested on: AF-2 activity of ER, RXRα and RARα; test: dominant negative effect on NR AF-2 activity, (17m)5-TATA-CAT reporter; assay type: cell-based; conditions: HeLa and Cos-1 cells
Excerpt: FIG. 12(a-d). The isolated nuclear receptor-interacting domain (ND) of TIF2 acts dominant-negatively on the transcriptional activation by the ER, RXR and RAR LBDs. The mean value of induction obtained from the quantitation of at least three experiments (relative to the respective receptor LBD activity in absence of recombinant TIF2) is indicated below each panel. Expression levels of TIF2, TIF2.1 and TIF2.5 were routinely verified by Western blot with mouse monoclonal antibody 3Ti3C11 directed against a region of TIF2.5 (not shown).
(b-d) Full length TIF2 and the coactivator fragment TIF2.1 enhance, whereas the nuclear receptor interacting domain TJF2.5 blocks the activity of the ER, RXR and RAR LBDs. Cos-1 and HeLa cells were cotransfected with 1 μg of the (17m)5-TATA-CAT reporter and 0.2 μg of the expression vector encoding the respective GAL DBD-fusion of hERα(EF), mRXRα(DE) or mRARα(DEF).
Assuming that TIF2 or coactivators recognizing the TIF2 interacting surface on NR LBDs, generally mediate the AF-2 function of NRs, the NID containing TIF2.5 should exert its dominant negative activity not only on ER, but also on other NRs, independently of the cellular context. We therefore analyzed the effect of TIF2.5 on the AF-2 activity of ER, RXRα and RARα in HeLa and in Cos-1 cells (FIGS. 12b-d).

ER, RARα and RXRα LBDs = test: GST pull-down of TIF2 polypeptides with NR LBDs; assay type: binding; conditions: in vitro, with or without 10^−6 M ligand
Method: (b) Mapping of the nuclear receptor-interacting domain of TIF2.
(c-d) Interaction of TIF2 NID mutants with NRs in vitro. […] For quantification of point mutant interactions, see below.
(e-f) Effect of TIF2 NID point mutations on stimulation of NR AF-2 activity. Cos-1 cells were cotransfected with 1 μg of the (17m)5-TATA-CAT reporter, 0.2 μg of GAL-hERα(EF) or GAL-mRXRα(DE), and 2.5 μg of the TIF2.1 wildtype or mutated fragments, as indicated. […] Each bar represents the mean value obtained from at least three (interaction) or at least four (transactivation) experiments, respectively; standard deviations are indicated. Note that the absolute values for TIF2.1 wildtype activity varied by ±16% when cotransfected with GAL-hERα(EF) and by ±34% when cotransfected with GAL-mRXRα(DE). In the in-vitro-interaction assays, the affinity of the TIF2.1 wildtype standard varied by less than ±25%. Expression levels of TIF2 mutants in the cells were verified by Western blot (not shown) with mouse monoclonal antibody 3Ti3F1, which is directed against an epitope outside the mutated area.
To further delineate the TIF2 NR interaction domain (NID), we studied the interaction between a series of TIF2 deletion mutants and the ER or RARα LBDs, using GST-fusion protein-based in vitro assays. In both cases, an NWD was mapped to the central region of TIF2 (amino acids 624-869 in mutant TIF2.5; see FIGS. 7a and b). No additional NWD could be identified in the N- or C-termini of TIF2 (FIGS. 7a and b; mutants TIF2.0, TIF2.2 and TIF2.7). Note that, in contrast, SRC-1, a paralogue of TIF2, apparently harbours two distinct non-contiguous NIDs located in the central and C-terminal regions (Onate, S. A. et al., Science 270:1354-1357 (1995), Yao, T. P. et al., Proc. Natl. Acad. Sci. USA 93:10626-10631 (1996); Zhu, Y. et al., Gene Epression 6:185-195 (1996)).

- binding to GST-CBP in vitro [1]: also interacted with GST-CBP
- effect on AF-2 activity of liganded RXRα (RXRα AF-2): stimulated
- effect on transcriptional activity of ER (ER (HEGO)): further enhanced
- effect on transactivation by RARα LBD (RARα LBD): very efficiently enhanced
B1: TIF2.1: cytoplasmic TIF2 coactivator fragment, amino acids 624 to 1287 of SEQ ID NO:2 (protein)
chain: ERADGQSRLHDSKGQTKLLQLLTTKSDQMEPSPLASSLSDTNKDSTGSLPGSGSTHGTSLKEKHKILHRLLQDSSSPVDLAKLTAEATGKDLSQESSSTAPGSEVTIKQEPVSPKKKENALLRYLLDKDDTKDIGLPEITPKLERLDSKTDPASNTKLIAMKTEKEEMSFEPGDQPGSELDNLEEILDDLQNSQLPQLFPDTRPGAPAGSVDKQAIINDLMQLTAENSPVTPVGAQKTALRISQSTFNNPRPGQLGRLLPNQNLPLDITLQSPTGAGPFPPIRNSSPYSVIPQPGMMGNQGMIGNQGNLGNSSTGMIGNSASRPTMPSGEWAPQSSAVRVTCAATTSAMNRPVQGGMIRNPAASIPMRPSSQPGQRQTLQSQVMNIGPSELEMNMGGPQYSQQQAPPNQTAPWPESILPIDQASFASQNRQPFGSSPDDLLCPHPAAESPSDEGALLDQLYLALRNFDGLEEIDRALGIPELVSQSQAVDPEQFSSQDSNIMLEQKAPVFPQQYASQAQMAQGSYSPMQDPNFHTMGQRPSYATLRMQPRPGLRPTGLVQNQPNQLRLQLQHRLQAQQNRQPLMNQISNVSNVNLTLRPGVPTQAPINAQMLAQRQREILNQHLRQRQMHQQQQVQQRTLMMRGQGLNMTPSMVAPSGMPATMS
- interaction with GAL-CBP, two hybrid (GAL-CBP): scored positive
- histone acetylase activity (histone): none
- transcriptional activation of GAL4 reporter by GAL4 DBD fusion (GAL4 reporter): strongly transactivated

- binding to NRs (ER, RARα LBDs) (ER, RARα and RXRα LBDs): can bind to NRs
B2: TIF2.5: TIF2 fragment amino acids 624-869, isolated NID (protein)
chain: ERADGQSRLHDSKGQTKLLQLLTTKSDQMEPSPLASSLSDTNKDSTGSLPGSGSTHGTSLKEKHKILHRLLQDSSSPVDLAKLTAEATGKDLSQESSSTAPGSEVTIKQEPVSPKKKENALLRYLLDKDDTKDIGLPEITPKLERLDSKTDPASNTKLIAMKTEKEEMSFEPGDQPGSELDNLEEILDDLQNSQLPQLFPDTRPGAPAGSVDKQAIINDLMQLTAENSPVTPVGAQKTALRISQST
- effect on NR AF-2 activity [2]: dose-dependent inhibition of the NR AF-2 activity
- transcriptional activation of GAL4 reporter by GAL4 DBD fusion (GAL4 reporter): cannot activate transcription
